Data as given in article PMC11685791, “Noncanonical calcium binding motif controls folding of HopQ1, a Pseudomonas syringae type III secretion effector, in a pH-dependent manner” (Scientific Reports, 2024).
Where “and” joins values, the source holds several entries; their conditions need not be identical. Equal entries are not always repeated.

Assays:
[1] = biological target: HopQ1 fused to ECFP or EYFP, expressed in N. benthamiana (Pseudomonas savastanoi pv. phaseolicola 1448A (former Pseudomonas syringae pv. phaseolicola 1448A)) (UniProt Q48BD8); test: FRET or BRET; FLIM-FRET in nuclei of N. benthamiana leaf cells; donor fused to ECFP, acceptor fused to EYFP, transiently co-expressed; eight to ten nuclei per combination
[2] = biological target: Recombinant HopQ1 with a C-terminal 6 × His epitope (Pseudomonas savastanoi pv. phaseolicola 1448A (former Pseudomonas syringae pv. phaseolicola 1448A)) (UniProt Q48BD8); test: SEC; gel filtration on Superdex 200, reducing conditions with chelating agent (1 mM EDTA)
[3] = biological target: Recombinant HopQ1 with a C-terminal 6 × His epitope (Pseudomonas savastanoi pv. phaseolicola 1448A (former Pseudomonas syringae pv. phaseolicola 1448A)) (UniProt Q48BD8); test: SEC-MALS; native (non-reducing) conditions; Superdex 200 10/300GL, 100 mM Tris-HCl, 150 mM NaCl, pH 8.0, 4 °C; 0.4 mg protein per run
[4] = biological target: the molecule itself; test: SEC; gel filtration on Superdex 200, reducing conditions with chelating agent (1 mM EDTA)
[5] = biological target: the molecule itself; test: SEC; gel filtration on Superdex 200 of the calcium-site mutant; 'all the conditions tested' (not listed for the mutant)

Molecule Nt14-3-3a-ECFP (natural protein) has an FRET efficiency [1] of 14.2%.

“Recombinant HopQ1 with a C-terminal 6 × His epitope (from UniProt Q48BD8 1-447) (natural protein)” was tested, and the stoichiometry N [2] was 2 and the stoichiometry N [3] was 2 and 3.

B1: RihA, a pyrimidine-specific ribonucleoside hydrolase from E. coli K-12 (enzyme, UniProt P41409 1-311, looked up)
chain: MALPILLDCDPGHDDAIAIVLALASPELDVKAITSSAGNQTPEKTLRNVLRMLTLLNRTDIPVAGGAVKPLMRELIIADNVHGESGLDGPALPEPTFAPQNCTAVELMAKTLRESAEPVTIVSTGPQTNVALLLNSHPELHSKIARIVIMGGAMGLGNWTPAAEFNIYVDPEAAEIVFQSGIPVVMAGLDVTHKAQIHVEDTERFRAIGNPVSTIVAELLDFFLEYHKDEKWGFVGAPLHDPCTIAWLLKPELFTSVERWVGVETQGKYTQGMTVVDYYYLTGNKPNATVMVDVDRQGFVDLLADRLKFYA
notes: RihA (also known as YbeK), pyrimidine-specific ribonucleoside hydrolase of E. coli K-12; also called YbeK; source: E. coli BL21 Rosetta, purified
B1 was tested, and the “stoichiometry N” value [4] was 4.

B2: HopQ1-D107A_D108A (recombinant, 6 × His) (natural protein)
chain: MHRPITAGHTTSRLILDQLKQISRTPSESSVQSALSQQASMSSPVLERSKSAPALLTAAQRTMLAQVGACNSHLTSDENMAINELRLHKPRLPKDTWFFTDPNKDPAAVVTYTLGKQLQAEGFVHITDVVATLGDAEVRSQRAEMAKGVFNKLGLHDVHVSRGRDYAMNSLQSKEHAKFLLEGHALRAGPGEIHRDSLQDMSRRLARAPHGVGIVVIAGMSDINALITTCPDMVRERVDDITIMGGVEPLKDADGFVQPDARAYNNATDMDAARSLYRKAQELGIPLRIVTKEAAYKTAVSPSFYEGIAGSGHPVGHYLRDVQKSALKGLWEGIQAGLLPGLDDSWFFRTFMPNAQIEAAQLDKNKESSFEDIWPKVTKLNLYDPLTLLASVPGAAKLLFKPKAIHTEGFGVVEQVGPDDVTHPEKAKLLMSALAKSALVQSTVAPD
notes: HopQ1 of Pseudomonas savastanoi pv. phaseolicola 1448A, GenBank AAZ37975.1, with D107A and D108A; source: E. coli BL21 Rosetta, purified
For B2, the “stoichiometry N” value [5] was 2.
